In the supplement of paper PMC9112550, “Optimization of the antimicrobial peptide Bac7 by deep mutational scanning” (BMC Biology, 2022):

Each sequence was assayed on Escherichia coli TOP10 (assay: shrunken log2 fold change of peptide-encoding DNA abundance (4.5 h post-induction vs induction); higher = less antimicrobial activity (less host growth inhibition)). Conditions: time post-induction: 4.5 h; library: site-saturation at positions 5, 18, 19, 20.
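Also: peptides expressed intracellularly from a pBAD plasmid library in pooled LB shake-flask culture, induced with 0.3% L-arabinose, DNA abundance read by NGS, three biological replicates, DESeq2 with apeglm shrinkage.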

Row | Sequence | shrunken log2 fold change
1 | RRIRGRPPRLPRPRPRPWVDPRP | 0.308
2 | RRIRGRPPRLPRPRPRPWVHPRP | -0.0245
3 | RRIRGRPPRLPRPRPRPWVLPRP | 0.222
4 | RRIRGRPPRLPRPRPRPWVWPRP | 0.368
5 | RRIRGRPPRLPRPRPRPYATPRP | 1.81
6 | RRIRGRPPRLPRPRPRPYCDPRP | 0.226
7 | RRIRGRPPRLPRPRPRPYDLPRP | -0.511
8 | RRIRGRPPRLPRPRPRPYEPPRP | 0.0834
9 | RRIRGRPPRLPRPRPRPYGSPRP | -0.303
10 | RRIRGRPPRLPRPRPRPYGVPRP | -0.128
11 | RRIRGRPPRLPRPRPRPYIKPRP | -0.164
12 | RRIRGRPPRLPRPRPRPYLHPRP | -0.385
13 | RRIRGRPPRLPRPRPRPYMEPRP | -0.164
14 | RRIRGRPPRLPRPRPRPYNNPRP | -0.321
15 | RRIRGRPPRLPRPRPRPYPEPRP | 0.0556
16 | RRIRGRPPRLPRPRPRPYPWPRP | 0.155
17 | RRIRGRPPRLPRPRPRPYQTPRP | 0.0825
18 | RRIRGRPPRLPRPRPRPYRGPRP | -0.186
19 | RRIRGRPPRLPRPRPRPYRMPRP | -0.245
20 | RRIRGRPPRLPRPRPRPYSRPRP | -0.024
21 | RRIRGRPPRLPRPRPRPYSWPRP | 0.187
22 | RRIRGRPPRLPRPRPRPYWVPRP | -0.178
23 | RRIRGRPPRLPRPRPRPYYNPRP | -0.48
24 | RRIRHRPPRLPRPRPRPAAEPRP | 0.334
25 | RRIRHRPPRLPRPRPRPADDPRP | 0.083

Row | Sequence | shrunken log2 fold change
26 | RRIRHRPPRLPRPRPRPADIPRP | -0.102
27 | RRIRHRPPRLPRPRPRPADKPRP | -0.245
28 | RRIRHRPPRLPRPRPRPAEMPRP | -0.01
29 | RRIRHRPPRLPRPRPRPAEPPRP | 0.19
30 | RRIRHRPPRLPRPRPRPAEYPRP | 0.034
31 | RRIRHRPPRLPRPRPRPAFFPRP | 0.0438
32 | RRIRHRPPRLPRPRPRPAGLPRP | 0.269
33 | RRIRHRPPRLPRPRPRPAHDPRP | 0.0776
34 | RRIRHRPPRLPRPRPRPAITPRP | -0.0845
35 | RRIRHRPPRLPRPRPRPAKRPRP | -0.132
36 | RRIRHRPPRLPRPRPRPAMIPRP | -0.0435
37 | RRIRHRPPRLPRPRPRPAMMPRP | -0.114
38 | RRIRHRPPRLPRPRPRPANIPRP | -0.291
39 | RRIRHRPPRLPRPRPRPANWPRP | 0.135
40 | RRIRHRPPRLPRPRPRPAQQPRP | -0.0312
41 | RRIRHRPPRLPRPRPRPAQRPRP | 0.359
42 | RRIRHRPPRLPRPRPRPATDPRP | -0.185
43 | RRIRHRPPRLPRPRPRPATWPRP | 0.222
44 | RRIRHRPPRLPRPRPRPAWKPRP | -0.0109
45 | RRIRHRPPRLPRPRPRPAYEPRP | 0.0981
46 | RRIRHRPPRLPRPRPRPAYKPRP | -0.102
47 | RRIRHRPPRLPRPRPRPAYLPRP | -0.323
48 | RRIRHRPPRLPRPRPRPAYQPRP | -0.0802
49 | RRIRHRPPRLPRPRPRPAYYPRP | -0.624
50 | RRIRHRPPRLPRPRPRPCACPRP | -0.176

Row | Sequence | shrunken log2 fold change
51 | RRIRHRPPRLPRPRPRPCAGPRP | -0.195
52 | RRIRHRPPRLPRPRPRPCAVPRP | -0.0171
53 | RRIRHRPPRLPRPRPRPCCAPRP | -0.0125
54 | RRIRHRPPRLPRPRPRPCCDPRP | -0.228
55 | RRIRHRPPRLPRPRPRPCCFPRP | -0.245
56 | RRIRHRPPRLPRPRPRPCDSPRP | -0.00145
57 | RRIRHRPPRLPRPRPRPCFEPRP | -0.114
58 | RRIRHRPPRLPRPRPRPCHAPRP | -0.0924
59 | RRIRHRPPRLPRPRPRPCILPRP | -0.134
60 | RRIRHRPPRLPRPRPRPCKPPRP | -0.314
61 | RRIRHRPPRLPRPRPRPCKQPRP | -0.0199
62 | RRIRHRPPRLPRPRPRPCLKPRP | -0.16
63 | RRIRHRPPRLPRPRPRPCLPPRP | -0.041
64 | RRIRHRPPRLPRPRPRPCLRPRP | 0.0119
65 | RRIRHRPPRLPRPRPRPCNCPRP | 0.0668
66 | RRIRHRPPRLPRPRPRPCPPPRP | -0.845
67 | RRIRHRPPRLPRPRPRPCTEPRP | -0.138
68 | RRIRHRPPRLPRPRPRPCTFPRP | -0.456
69 | RRIRHRPPRLPRPRPRPCVHPRP | -0.00151
70 | RRIRHRPPRLPRPRPRPCVLPRP | -0.14
71 | RRIRHRPPRLPRPRPRPCWFPRP | -0.499
72 | RRIRHRPPRLPRPRPRPCWGPRP | -0.137
73 | RRIRHRPPRLPRPRPRPCWTPRP | -0.237
74 | RRIRHRPPRLPRPRPRPCYHPRP | -0.00149
75 | RRIRHRPPRLPRPRPRPCYSPRP | -0.0983
